Data taken from article doi:10.1101/541805.

Molecular target: rat Kv2.2-GFP (rat) (UniProt Q63099)

With “GxTX-594 (guangxitoxin-1E Ser13Cys, Met35 norleucine, conjugated to Alexa 594) (from UniProt P84835 1-36) (peptide)” the Pearson correlation coefficient (colocalization with GFP) was 0.8.
